This passage reports protein stability index results from the supplement of paper PMC10567573.

The chains are these.
B1: WDFY1 (parent)
chain: FWNIKQMWDTKTLGLRQHHCRKCG
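Further: lentivirally expressed fusions sorted by FACS into six bins by GFP to DsRed ratio, PSI derived from sequencing read proportions per bin multiplied by bin number.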

In the data set the parent is B1. The data set is described as follows: protein stability index of a GFP-peptide fusion (GPS, HEK-293T) (PSI 1-6); higher = more stable. As to conditions: c terminus: a fixed tail appended.
Regarding FWNIFQMWDTKTLGLRQHHCRKCG, the protein stability index is 2.33. The value for FWNIIQMWDTKTLGLRQHHCRKCG was 2.15; that for FWNISQMWDTKTLGLRQHHCRKCG was 1.72. To FWNIYQMWDTKTLGLRQHHCRKCG belongs 1.36; to FWNIKQMCDTKTLGLRQHHCRKCG, 2.54; to FWNIKQMQDTKTLGLRQHHCRKCG, 2.59.

Regarding FWNIKQMVDTKTLGLRQHHCRKCG, the protein stability index was 2.15. To FWNIKQMIDTKTLGLRQHHCRKCG belongs 1.75. The value for FWNIKQMWDTKTLGLRQHHCRNCG was 1.99; that for FWNIKQMWDTKTLGLRQHHCRQCG was 2.01.

In the case of FWNIKQMWDTKTLGLRQHHCRGCG, the protein stability index came to 1.82. To FWNIKQMWDYKTLGLRQHHCRKCG belongs 1.41; to FWNIKQMWDKKTLGLRQHHCRKCG, 3.11.

On to FWNIKQMWDLKTLGLRQHHCRKCG, for which the protein stability index worked out at 2.23. The value for FWNIKQMWDSKTLGLRQHHCRKCG was 2.18.

Consider FWNIKQMWDTKTLGLRQHHCRKEG, for which the protein stability index turned out to be 1.93. To FWNIKQMWDTKTLGLRQHHCRKKG belongs 2.71.

For FWNIKQMWDTKTLGLRQHHCRKFG, the protein stability index came to 1.59. The value for FWNIKQMWDTKTLGLRQHHCRKHG was 2.78; that for FWNIKQMWDTKTLGLRQHHCRKYG was 2.04; that for FWNIKQMWDTKTLGLRQHHCRKPG was 2.19.

As for FDNIKQMWDTKTLGLRQHHCRKCG, the protein stability index came to 2.19. Turning to FINIKQMWDTKTLGLRQHHCRKCG, the protein stability index turned out to be 2.41. To FTNIKQMWDTKTLGLRQHHCRKCG belongs 1.67; to FWNIKQMWDTKTLFLRQHHCRKCG, 2.78; to FWNIKQMWDTKTLELRQHHCRKCG, 2.44.

With FWNIKQMWDTKTLNLRQHHCRKCG, the protein stability index turned out to be 2.08. The value for FWNIKQMWDTKTLTLRQHHCRKCG was 2.68; that for FWNIKQMWDTKTLWLRQHHCRKCG was 1.87. To FWNIKQMWDTKTLGLRQHHCRKCY belongs 2.01; to FWNIKQMWDTKTLGLRQHHCRKCS, 2.1; to FWNIKQMWYTKTLGLRQHHCRKCG, 1.89. To FWNIKQMWTTKTLGLRQHHCRKCG belongs 1.47; to FWNIKQMWQTKTLGLRQHHCRKCG, 1.5; to FWNIKQMWWTKTLGLRQHHCRKCG, 1.75. FWNIKQMWVTKTLGLRQHHCRKCG: the protein stability index came out at 3.82. The value for FWNIKIMWDTKTLGLRQHHCRKCG was 2.45; that for FWNIKRMWDTKTLGLRQHHCRKCG was 2.38. To FWNIKQMWDTKTLGLRQNHCRKCG belongs 2.35; to FWNIKQMWDTKTLGLRQKHCRKCG, 1.89. To FWNIKQMWDTKTLGLRQAHCRKCG belongs 1.84. FWNIKQMWDTKTLGLRQMHCRKCG: the protein stability index came out at 2.27. The value for FWNIKQMWDTKTLGLRQEHCRKCG was 2.21. The value for FWNIKQMWDTKTLGLRQFHCRKCG was 1.64; that for FWNIKQMWDTKTLGLRGHHCRKCG was 2.98; that for FWNIKQMWDTKTLGLRKHHCRKCG was 1.99. As to FWNIKQMWDTKTLGLRMHHCRKCG, the protein stability index was 1.7. Take FWNIKQMWDTKTLGLRLHHCRKCG: the protein stability index was 2.53. To FWNIKQWWDTKTLGLRQHHCRKCG belongs 1.96. The value for FWNIKQKWDTKTLGLRQHHCRKCG was 2.35; that for FWNIKQQWDTKTLGLRQHHCRKCG was 2.92; that for FWNIKQEWDTKTLGLRQHHCRKCG was 2.48.

For the variant FWNIKQPWDTKTLGLRQHHCRKCG, the protein stability index came out at 1.95. Consider FWNIKQMWDTKTTGLRQHHCRKCG, for which the protein stability index is 1.95. To FWNIKQMWDTKTDGLRQHHCRKCG belongs 1.7; to FWNIKQMWDTKTAGLRQHHCRKCG, 2.01; to FWNIKQMWDTKTLGLRQHHPRKCG, 1.73. To FWNIKQMWDTKTLGLRQHHIRKCG belongs 2.17. Regarding FWNIKQMWDTKTLGLRQHHERKCG, the protein stability index is 2.09.

With FWNIKQMWDTKTLGVRQHHCRKCG, the protein stability index is 2.35. The value for FWNIKQMWDTKTLGYRQHHCRKCG was 1.98; that for FWNIKQMWDTKTLGLRQHQCRKCG was 2.4. The value for FWNIKQMWDTKTLGLRQHSCRKCG was 2.13; that for FWNIKQMWDTKTLGLRQHVCRKCG was 2.17. As for FWNIKQMWDTKTLGLRQHECRKCG, the protein stability index is 2.09.

As for FWNIKQMWDTKTLGLRQHPCRKCG, the protein stability index worked out at 2.66.

For FWNIKQMWDTKTLGLRQHYCRKCG, the protein stability index worked out at 2.5. To FWNIKQMWDTKTLGLRQHMCRKCG belongs 1.92.

FWNIKQMWDTTTLGLRQHHCRKCG: the protein stability index is 2.21. With FWNIKQMWDTDTLGLRQHHCRKCG, the protein stability index was determined as 2.37. FWNIKQMWDTHTLGLRQHHCRKCG: the protein stability index is 1.8. The value for FWNIKQMWDTVTLGLRQHHCRKCG was 1.97; that for FWNIKQMWDTITLGLRQHHCRKCG was 1.42; that for FWNIKQMWDTGTLGLRQHHCRKCG was 2.08. To FWNIKQMWDTWTLGLRQHHCRKCG belongs 2.44; to PWNIKQMWDTKTLGLRQHHCRKCG, 2.29; to EWNIKQMWDTKTLGLRQHHCRKCG, 2.61. The value for VWNIKQMWDTKTLGLRQHHCRKCG was 1.97; that for MWNIKQMWDTKTLGLRQHHCRKCG was 2.98. With GWNIKQMWDTKTLGLRQHHCRKCG, the protein stability index is 2.3. For the variant FWNIKQMWDTKTLGLRQHHCHKCG, the protein stability index came to 1.57.

As to FWNIKQMWDTKTLGLRQHHCPKCG, the protein stability index was 2.07. To FWNIKQMWDTKTLGLRQHHCKKCG belongs 2.78; to FWNIKQMWDTKTLGLRQHHCDKCG, 2.8; to FWNIKQMWDTKFLGLRQHHCRKCG, 2.11. In the case of FWNIKQMWDTKMLGLRQHHCRKCG, the protein stability index worked out at 2.6.

On to FWNIKQMWDTKWLGLRQHHCRKCG, for which the protein stability index worked out at 1.79. Regarding FWNIKQMWDTKNLGLRQHHCRKCG, the protein stability index amounted to 1.84. The value for FWWIKQMWDTKTLGLRQHHCRKCG was 2.85; that for FWHIKQMWDTKTLGLRQHHCRKCG was 1.85. The value for FWSIKQMWDTKTLGLRQHHCRKCG was 1.61; that for FWNTKQMWDTKTLGLRQHHCRKCG was 2.14; that for FWNQKQMWDTKTLGLRQHHCRKCG was 3.12.

Regarding FWNRKQMWDTKTLGLRQHHCRKCG, the protein stability index is 1.45.
